We go through 1 substance from patent US20210079398A1.

Assay [1] concerns the target Spot-Tag peptide-oligonucleotide conjugate (Spot-Tag.O1). In words: BCS binding assay on a sequencing chip (Cycle 1), NGS count of the nanobody barcode on foundation Spot-Tag.O1_BCS4_Fd19.
The target is the same in assay [2]. In words: BCS binding assay on a sequencing chip (Cycle 1), NGS count of the nanobody barcode on foundation Spot-Tag.O1_BCS4_Fd31.
Assay [3] shares this target. In words: BCS binding assay on a sequencing chip (Cycle 1), NGS count of the nanobody barcode on foundation Spot-Tag.O1_BCS4_Fd29.
For assay [4] the target is unchanged. Nature of the assay: BCS binding assay on a sequencing chip (Cycle 1), NGS count of the nanobody barcode on foundation Spot-Tag.O1_BCS4_Fd20.
Assay [5] concerns the target Bradykinin peptide-oligonucleotide conjugate (Brady.O1). Nature of the assay: BCS binding assay on a sequencing chip (Cycle 1), NGS count of the nanobody barcode on foundation Brady.O1_BCS4_Fd13 (non-specific peptide control).
The target in assay [6] is Spot-Tag peptide-oligonucleotide conjugate (Spot-Tag.O1). Nature of the assay: BCS binding assay on a sequencing chip (Cycle 1), NGS count of the nanobody barcode on foundation Spot-Tag.O1_BCS4_Fd28.
Assay [7] addresses Bradykinin peptide-oligonucleotide conjugate (Brady.O1). Nature of the assay: BCS binding assay on a sequencing chip (Cycle 1), NGS count of the nanobody barcode on foundation Brady.O1_BCS4_Fd14 (non-specific peptide control).
The target of assay [8] is Spot-Tag peptide-oligonucleotide conjugate (Spot-Tag.O1). In words: BCS binding assay on a sequencing chip (Cycle 1), NGS count of the nanobody barcode on foundation Spot-Tag.O1_BCS4_Fd27.
Assay [9] deals with Bradykinin peptide-oligonucleotide conjugate (Brady.O1). In words: BCS binding assay on a sequencing chip (Cycle 1), NGS count of the nanobody barcode on foundation Brady.O1_BCS4_Fd12 (non-specific peptide control).

Regarding Spot-tag nanobody-oligo conjugate (VHH), the sequencing counts of binder barcode ligated to target foundation in assay [1] came to 6900 counts; in assay [2] it was 6160 counts; in [3] it was 10600 counts; in [4], 9650 counts; in [5], 1620 counts; in [6], 4880 counts. Besides, the sequencing counts of binder barcode ligated to target foundation in [7] came to 587 counts; in assay [8] it was 3380 counts; in assay [9] it was 40 counts.
